Experimental findings from patent publication US9777044B2, “GLUT-1 as a receptor for HTLV envelopes and its uses” (CENTRE NATIONAL DE LA RECHERCHE SCIENTIFIQUE (CNRS), priority 2003, dated 2017) are described below.

Data set [1] addresses T1, GLUT-1 (Homo sapiens, UniProt P11166).
T1 construct: factor Xa cleavage site (C); His (C); expressed in transfected cells
T1 sequence (P11166 1-492): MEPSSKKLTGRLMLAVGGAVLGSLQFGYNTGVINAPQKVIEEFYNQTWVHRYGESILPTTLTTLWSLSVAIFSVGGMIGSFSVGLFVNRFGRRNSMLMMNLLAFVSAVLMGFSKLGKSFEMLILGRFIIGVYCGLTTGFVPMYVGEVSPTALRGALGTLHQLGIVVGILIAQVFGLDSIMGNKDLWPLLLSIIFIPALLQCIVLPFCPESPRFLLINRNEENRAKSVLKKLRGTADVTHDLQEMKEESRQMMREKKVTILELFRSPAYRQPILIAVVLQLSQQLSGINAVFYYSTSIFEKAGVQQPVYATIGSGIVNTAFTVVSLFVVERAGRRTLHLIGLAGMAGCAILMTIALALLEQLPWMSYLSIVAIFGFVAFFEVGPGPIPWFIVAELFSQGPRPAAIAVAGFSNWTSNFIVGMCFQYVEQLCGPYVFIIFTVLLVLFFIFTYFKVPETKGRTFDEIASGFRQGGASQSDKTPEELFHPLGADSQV
The data set is described as follows: Immunoprecipitation of GLUT-1-HA with anti-rabbit-Fc beads. It is filed as binding. To be noted: co-expression with GLUT-1 in 293T cells, probed with anti-HA antibody. The source says: FIGS. 4a-4c GLUT-1 is a receptor for HTLV envelopes. FIG. 4a, Binding of H1RBD, H2RBD, H2RBD D102A mutant, and ARBD to control 293T cells or 293T cells overexpressing either GLUT-1 or PiT2. FIG. 4b, Binding of H2RBD-EGFP to cells overexpressing GLUT-1-HA or GLUT-3-HA, and corresponding immunoblots using an anti-HA antibody. FIG. 4c, Immunoprecipitation of GLUT-1-HA from 293T cells transfected with either an irrelevant construct, GLUT-1 alone, H1RBD alone, H1RBD Y114A alone, GLUT-1 with H1RBD or GLUT-1 with H1RBD Y114A expression vectors Immunoprecipitation was performed using anti-rabbit-Fc beads and probed with an anti-HA antibody. Total cell extracts were blotted using an anti-rabbit Fc or an anti-HA antibody.
In order to directly test the ability of HTLV envelopes to bind GLUT-1, we derived a tagged GLUT-1 expression vector and overexpressed this protein in HeLa cells. […] GLUT-3 is the closest isoform to GLUT-1, and transports glucose with kinetics similar to that of GLUT-1. Thus, we derived a tagged GLUT-3 expression vector. […] To determine if GLUT-1 transfected cells were directly responsible for the observed increased in H1RBD binding, we derived fluorescent tagged GLUT-1 and GLUT-3 to uniquevocally identity GLUT-overexpressing cells in the course of our FACS analysis. […] To this end, we evaluated the ability of H1RBD to immunoprecipitate GLUT-1. […]

Data set [2] has as its system 293T cells. In words: Hexose uptake assay: fructose. To be noted: transfected 293T cells. It is filed as cell-based, human. The protocol:
Assay of hexose uptake. 2-deoxy-D[1-^3H]glucose, D[U-^14C]fructose and 3-O-[^14C]methyl-D-glucose were obtained from Amersham. Hexose uptake assay were adapted from Harrison et al. 1991). After transfection, approximately 250,000 were seeded/well in 24-well plates. […] Uptake was initiated by adding labeled hexoses to a final concentration of 0.1 mM (2 μCi/ml for 2-2-deoxy-D[1-^3H]glucose and 0.2 μCi/ml for D[U-^14C]fructose and 3-O-[^14C]methyl-D-glucose) and cells were incubated for 5′ additional minutes. Cells were then resuspended in 500 μl cold serum-free glucose-free DMEM, wash one time in serum-free glucose-free DMEM, and solubilized in 400 μl of 0.1% SDS. 3 μl was used for Bradford normalization, while the rest was used for detection of either ^3H or ^14C by liquid scintillation in a Beckman counter.

For data set [3], the system named is PiT2. The data set is described as follows: RBD binding to cells overexpressing PiT2.
The subject of data set [4] is human primary hepatocytes. The data set is described as follows: RBD binding on human primary hepatocytes.

B1: H1RBD: first 215 residues of HTLV-1 SU fused to a C-terminal rabbit IgG Fc tag (rFc) (protein)
chain: DYSPSCCTLTIGVSSYHSKPCNPAQPVCSWTLDLLALSADQALQPPCPNLVSYSSYHATYSLYLFPHWIKKPNRNGGGYYSASYSDPCSLKCPYLGCQSWTCPYTGAVSSPYWKFQQDVNFTQEVSRLNINLHFSKCGFPFSLLVDAPGYDPIWFLNTEPSQLPPTAPPLLPHSNLDHILEPSIPWKSKLLTLVQVDVPRDCGCKPCICTVPEVSSVFIFPPKPKDVLTITLTPKVTCVVVDISKDDPEVQFSWFVDDVEVHTAQTQPREEQFNSTFRSVSELPIMHQDWLNGKEFKCRVNSAAFPAPIEKTISKTKGRPKAPQVYTIPPPKEQMAKDKVSLTCMITDFFPEDITVEWQWNGQPAENYKNTQPIMDTDGSYFVYSKLNVQKSNWEAGNTFTCSVLHEGLHNHHTEKSLSHSPGK
As to B1, the “detection of GLUT-1 upon immunoprecipitation with anti-rabbit-Fc-beads” value in data set [1] was “readily detected”. Also, in data set [2], the Fructose uptake entry is listed as “not altered”. Further, the “binding upon overexpression of PiT2” value in data set [3] was “remained at background levels”. In addition, the “binding to human primary hepatocytes” value in data set [4] is “unable to detect H1RBD binding”.
